{
  "source": "paper doi:10.64898/2025.12.15.694324",
  "about": "“Dimerization of human PARP15 is required for NAD^+ binding and automodification” (bioRxiv, 2025)",
  "proteins": {"B1": {"name": "PARP15^FL WT, full-length long isoform 1 of human PARP15 (enzyme, UniProt Q460N3 1-678, looked up)", "chain": "MAAPGPLPAAALSPGAPTPRELMHGVAGVTSRAGRDREAGSVLPAGNRGARKASRRSSSRSMSRDNKFSKKDCLSIRNVVASIQTKEGLNLKLISGDVLYIWADVIVNSVPMNLQLGGGPLSRAFLQKAGPMLQKELDDRRRETEEKVGNIFMTSGCNLDCKAVLHAVAPYWNNGAETSWQIMANIIKKCLTTVEVLSFSSITFPMIGTGSLQFPKAVFAKLILSEVFEYSSSTRPITSPLQEVHFLVYTNDDEGCQAFLDEFTNWSRINPNKARIPMAGDTQGVVGTVSKPCFTAYEMKIGAITFQVATGDIATEQVDVIVNSTARTFNRKSGVSRAILEGAGQAVESECAVLAAQPHRDFIITPGGCLKCKIIIHVPGGKDVRKTVTSVLEECEQRKYTSVSLPAIGTGNAGKNPITVADNIIDAIVDFSSQHSTPSLKTVKVVIFQPELLNIFYDSMKKRDLSASLNFQSTFSMTTCNLPEHWTDMNHQLFCMVQLEPGQSEYNTIKDKFTRTCSSYAIEKIERIQNAFLWQSYQVKKRQMDIKNDHKNNERLLFHGTDADSVPYVNQHGFNRSCAGKNAVSYGKGTYFAVDASYSAKDTYSKPDSNGRKHMYVVRVLTGVFTKGRAGLVTPPPKNPHNPTDLFDSVTNNTRSPKLFVVFFDNQAYPEYLITFTA", "modifications": "weakly MARylated from expression in Sf21 insect cells", "notes": "PARP15, human, full-length canonical isoform 1 (the longer isoform, both macrodomains present); Cloned in pFastBac-His-MBP (#30116); tags cleaved with TEV protease; source: Sf21 insect cells (baculovirus), purified (Ni-NTA, amylose resin, TEV cleavage, SEC)"}},
  "target": "the molecule itself",
  "assay": "SEC-MALS; 50 µg of each sample, Superdex 200 increase 10/300, 30 mM HEPES pH 7.5, 300 mM NaCl, 5 % glycerol, 0.5 mM TCEP",
  "data": [
    {"protein": "B1", "values": [
      {"measurement": "stoichiometry N", "value": "~2"}
    ]}
  ]
}
